Where two headings read alike, the source gives them in different places.
Legend:
[1] = biological target: Human fibrillin-1 fragment PF2 (human) (UniProt P35555); test: ELISA
[2] = biological target: Recombinant human tropoelastin lacking domain 26A (human); test: ELISA
[3] = biological target: Full-length human fibulin-5 (residues 42–448) (human) (UniProt Q9UBX5); test: ELISA
[4] = biological target: Human fibrillin-1 N-terminal fragment PF1, encoded by exons 1–11 (residues 31–489) (human) (UniProt P35555); test: ELISA
[5] = biological target: Full-length human fibulin-5 (residues 42–448) (human) (UniProt Q9UBX5); test: ELISA; remark: listed apart in the source
[6] = biological target: Recombinant human tropoelastin lacking domain 26A (human); test: SPR
SEC-MALS = biological target: the molecule itself; test: SEC-MALS
[7] = biological target: Recombinant human tropoelastin lacking domain 26A (human); test: ELISA; remark: listed apart in the source
[8] = biological target: PF1 variant with the Marfan mutation R62C (human, UniProt P35555 31-489, R62C); test: ELISA
[9] = biological target: PF1 variant with the Marfan mutation T101A (human, UniProt P35555 31-489, T101A); test: ELISA
[10] = biological target: PF1 variant with the Marfan mutation S115C (human, UniProt P35555 31-489, S115C); test: ELISA
PF1 variant with the Marfan mutation S115C, sequence (P35555 31-489 S115C): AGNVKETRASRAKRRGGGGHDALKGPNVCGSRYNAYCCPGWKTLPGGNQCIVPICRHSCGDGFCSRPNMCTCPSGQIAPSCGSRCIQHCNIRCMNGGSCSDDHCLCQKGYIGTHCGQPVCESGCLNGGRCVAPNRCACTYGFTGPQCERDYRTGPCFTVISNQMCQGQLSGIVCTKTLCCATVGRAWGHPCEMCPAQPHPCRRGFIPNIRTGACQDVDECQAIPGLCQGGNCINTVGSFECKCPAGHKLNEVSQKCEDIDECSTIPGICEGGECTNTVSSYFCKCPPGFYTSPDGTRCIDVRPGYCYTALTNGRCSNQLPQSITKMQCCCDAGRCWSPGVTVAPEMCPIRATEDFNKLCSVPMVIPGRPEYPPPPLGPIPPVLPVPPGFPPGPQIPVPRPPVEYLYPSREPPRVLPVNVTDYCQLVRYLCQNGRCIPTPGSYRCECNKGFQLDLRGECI

PF1 variant with the Marfan mutation R62C, sequence (P35555 31-489 R62C): as the sequence (P35555 31-489 S115C) above, with R32C, C85S counted along it
PF1 variant with the Marfan mutation T101A, sequence (P35555 31-489 T101A): as the sequence (P35555 31-489 S115C) above, with T71A, C85S counted along it
Human fibrillin-1 N-terminal fragment PF1, encoded by exons 1–11 (residues 31–489) (human), sequence (P35555 31-489): as the sequence (P35555 31-489 S115C) above, with C85S counted along it
Human fibrillin-1 fragment PF2 (human), sequence (P35555 45-2731): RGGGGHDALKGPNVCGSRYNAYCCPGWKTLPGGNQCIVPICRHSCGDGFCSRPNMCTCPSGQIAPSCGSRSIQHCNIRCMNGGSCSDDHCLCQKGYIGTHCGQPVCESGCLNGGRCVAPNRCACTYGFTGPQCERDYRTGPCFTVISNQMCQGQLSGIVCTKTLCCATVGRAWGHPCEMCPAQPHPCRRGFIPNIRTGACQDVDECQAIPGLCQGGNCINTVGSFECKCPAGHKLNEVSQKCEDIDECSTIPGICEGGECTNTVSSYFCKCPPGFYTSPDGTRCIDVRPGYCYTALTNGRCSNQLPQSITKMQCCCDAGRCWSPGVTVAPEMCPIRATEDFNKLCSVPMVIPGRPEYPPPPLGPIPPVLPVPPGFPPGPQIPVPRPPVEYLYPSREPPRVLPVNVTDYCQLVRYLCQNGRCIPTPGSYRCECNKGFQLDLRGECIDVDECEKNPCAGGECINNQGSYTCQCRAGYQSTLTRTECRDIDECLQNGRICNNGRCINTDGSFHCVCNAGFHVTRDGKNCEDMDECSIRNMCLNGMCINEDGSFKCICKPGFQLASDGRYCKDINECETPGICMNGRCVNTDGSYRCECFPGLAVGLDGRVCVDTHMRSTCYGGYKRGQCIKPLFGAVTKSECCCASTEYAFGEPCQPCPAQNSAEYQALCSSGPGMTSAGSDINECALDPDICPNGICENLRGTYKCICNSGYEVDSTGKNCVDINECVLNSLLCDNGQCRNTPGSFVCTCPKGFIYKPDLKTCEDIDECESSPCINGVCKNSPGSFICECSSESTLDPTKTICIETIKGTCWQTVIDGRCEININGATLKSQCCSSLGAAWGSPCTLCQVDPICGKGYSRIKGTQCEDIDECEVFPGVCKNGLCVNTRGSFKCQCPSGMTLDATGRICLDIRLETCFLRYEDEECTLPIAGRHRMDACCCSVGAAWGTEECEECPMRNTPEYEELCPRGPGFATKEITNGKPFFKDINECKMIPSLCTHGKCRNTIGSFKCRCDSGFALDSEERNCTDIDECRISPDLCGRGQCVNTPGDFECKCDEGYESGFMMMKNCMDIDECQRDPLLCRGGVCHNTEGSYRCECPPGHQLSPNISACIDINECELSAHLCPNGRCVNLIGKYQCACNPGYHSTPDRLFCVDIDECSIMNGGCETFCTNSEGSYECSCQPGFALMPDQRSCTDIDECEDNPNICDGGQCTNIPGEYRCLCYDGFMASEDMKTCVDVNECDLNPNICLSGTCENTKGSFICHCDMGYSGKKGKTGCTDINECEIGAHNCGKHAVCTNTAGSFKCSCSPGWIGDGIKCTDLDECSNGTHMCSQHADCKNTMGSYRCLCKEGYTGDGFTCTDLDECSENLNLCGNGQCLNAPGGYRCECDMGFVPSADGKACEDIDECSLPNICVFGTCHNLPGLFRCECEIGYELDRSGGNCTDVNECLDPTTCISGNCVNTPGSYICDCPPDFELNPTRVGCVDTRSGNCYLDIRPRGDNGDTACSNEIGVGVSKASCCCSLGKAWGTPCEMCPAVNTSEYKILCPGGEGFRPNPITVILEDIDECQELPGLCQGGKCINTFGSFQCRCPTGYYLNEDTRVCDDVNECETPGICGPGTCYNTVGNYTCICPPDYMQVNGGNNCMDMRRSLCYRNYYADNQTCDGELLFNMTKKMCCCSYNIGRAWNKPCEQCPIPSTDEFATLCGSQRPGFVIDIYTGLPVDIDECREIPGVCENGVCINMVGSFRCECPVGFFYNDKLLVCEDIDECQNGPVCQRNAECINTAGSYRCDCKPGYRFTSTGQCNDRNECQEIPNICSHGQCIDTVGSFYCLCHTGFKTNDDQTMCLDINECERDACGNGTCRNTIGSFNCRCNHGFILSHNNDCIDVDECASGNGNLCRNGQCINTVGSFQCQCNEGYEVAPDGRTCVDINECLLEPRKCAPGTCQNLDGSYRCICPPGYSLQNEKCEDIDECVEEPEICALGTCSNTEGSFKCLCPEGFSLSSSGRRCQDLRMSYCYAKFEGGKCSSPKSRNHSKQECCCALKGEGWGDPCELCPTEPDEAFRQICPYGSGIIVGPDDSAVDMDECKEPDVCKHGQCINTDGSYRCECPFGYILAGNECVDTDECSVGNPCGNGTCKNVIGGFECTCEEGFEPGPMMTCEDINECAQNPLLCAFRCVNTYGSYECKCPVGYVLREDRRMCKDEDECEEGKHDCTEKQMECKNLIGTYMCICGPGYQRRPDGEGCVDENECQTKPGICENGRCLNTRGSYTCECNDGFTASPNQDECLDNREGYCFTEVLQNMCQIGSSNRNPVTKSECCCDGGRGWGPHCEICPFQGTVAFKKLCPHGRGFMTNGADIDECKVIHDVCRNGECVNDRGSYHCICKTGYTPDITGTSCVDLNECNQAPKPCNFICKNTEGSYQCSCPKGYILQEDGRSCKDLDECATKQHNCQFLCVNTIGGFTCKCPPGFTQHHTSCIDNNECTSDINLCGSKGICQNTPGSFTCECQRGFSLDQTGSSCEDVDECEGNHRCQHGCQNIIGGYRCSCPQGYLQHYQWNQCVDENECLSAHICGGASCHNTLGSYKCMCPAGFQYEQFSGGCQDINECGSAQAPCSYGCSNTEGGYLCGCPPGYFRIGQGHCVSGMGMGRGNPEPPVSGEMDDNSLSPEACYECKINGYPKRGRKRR

For “Full-length human fibulin-4 (residues 26–418) (from UniProt O95967 26-443) (natural protein)”, the Kd [1] was 194 nM and the Kd [2] was 131 nM.

With “Human full-length lysyl oxidase (from UniProt P28300 22-417) (enzyme)” the Kd [3] was 338 nM, the Kd [4] was 26 nM and the Kd [5] was 304 nM. For the same molecule, the Kd [2] was 49 nM.

“Full-length fibulin-5 with the cutis laxa mutation S227P (from UniProt Q9UBX5 42-448) (natural protein)” gave a Kd [6] of 3420 nM, a koff [6] of 0.0093 s⁻¹ and a kon [6] of 20000 M⁻¹ s⁻¹.

“Fibulin-5 domain pair F5-E4+5 (residues 207–287) (from UniProt Q9UBX5 207-287) (domain or fragment)” showed a Kd [2] of 452 nM.

“Full-length human fibulin-5 (residues 42–448) (from UniProt Q9UBX5 42-448) (natural protein)” gave a Kd [6] of 64 nM, a koff [6] of 0.0013 s⁻¹ and a kon [6] of 44000 M⁻¹ s⁻¹.

With “Full-length fibulin-5 with the cutis laxa mutation C217R (from UniProt Q9UBX5 42-448) (natural protein)” the Kd [6] was 865 nM, the koff [6] was 0.0046 s⁻¹ and the kon [6] was 8400 M⁻¹ s⁻¹.

B1: N-terminal four domains of fibulin-4 (residues 26–217) (domain or fragment)
chain: SPQDSEEPDSYTECTDGYEWDPDSQHCRDVNECLTIPEACKGEMKCINHYGGYLCLPRSAAVINDLHGEGPPPPVPPAQHPNPCPPGYEPDDQDSCVDVDECAQALHDCRPSQDCHNLPGSYQCTCPDGYRKIGPECVDIDECRYRYCQHRCVNLPGSFRCQCEPGFQLGPNNRSCVDVNECDMGAPCEQRCFNSYGTFLCRCHQGYELHRDGFSCS
modifications: biotinylated where it was the soluble ligand of a solid phase assay
For B1, the “stoichiometry N” value (SEC-MALS) was 2.

B2: Full-length human fibulin-4 (residues 26–418) (natural protein)
chain: SPQDSEEPDSYTECTDGYEWDPDSQHCRDVNECLTIPEACKGEMKCINHYGGYLCLPRSAAVINDLHGEGPPPPVPPAQHPNPCPPGYEPDDQDSCVDVDECAQALHDCRPSQDCHNLPGSYQCTCPDGYRKIGPECVDIDECRYRYCQHRCVNLPGSFRCQCEPGFQLGPNNRSCVDVNECDMGAPCEQRCFNSYGTFLCRCHQGYELHRDGFSCSDIDECSYSSYLCQYRCINEPGRFSCHCPQGYQLLATRLCQDIDECESGAHQCSEAQTCVNFHGGYRCVDTNRCVEPYIQVSENRCLCPASNPLCREQPSSIVHRYMTITSERSVPADVFQIQATSVYPGAYNAFQIRAGNSQGDFYIRQINNVSAMLVLARPVTGPREYVLDLEMVTMNSLMSYRASSVLRLTVFVGAYTF
modifications: biotinylated (sulfosuccinimidyl 2-(biotinamido)-ethyl-1,3-dithiopropionate) where it was the soluble ligand of a solid phase assay
With B2 the “stoichiometry N” value (SEC-MALS) was 2.

B3: Fibulin-5 domain pair F5-E1+2 (residues 42–167) (domain or fragment)
chain: DIDECRTIPEACRGDMMCVNQNGGYLCIPRTNPVYRGPYSNPYSTPYSGPYPAAAPPLSAPNYPTISRPLICRFGYQMDESNQCVDVDECATDSHQCNPTQICINTEGGYTCSCTDGYWLLEGQCL
modifications: biotinylated where it was the soluble ligand of a solid phase assay
In the case of B3, the Kd [7] is reported as 332 nM, the binding result [8] is reported as “binds” and the binding result [9] is reported as “binds”. B3: binds [10].

B4: Fibulin-5 domain pair F5-E6FC (residues 288–448) (domain or fragment)
chain: DINECEHRNHTCNLQQTCYNLQGGFKCIDPIRCEEPYLRISDNRCMCPAENPGCRDQPFTILYRDMDVVSGRSVPADIFQMQATTRYPGAYYIFQIKSGNEGREFYMRQTGPISATLVMTRPIKGPREIQLDLEMITVNTVINFRGSSVIRLRIYVSQYPF
modifications: biotinylated where it was the soluble ligand of a solid phase assay
With B4 the Kd [7] was 965 nM, the binding result [8] was “binds” and the binding result [9] was “binds”. B4: binds [10].

Reference: publication PMC2782046 (The Journal of Biological Chemistry, 2009)
